Values belong to the binder of their own block, whether it stands above or below them. Numbered stars: 1 amine (or outer) side, 2 acyl side, 3 side chain; on linkers, the order of the positions; unused ones are H or OH. Bridge positions count the residues as written; N and C are the ends. Side chains are listed from the residue outwards. Ends that are not written are not given here. * marks the point of attachment. C20 diacid = O=C(O)CCCCCCCCCCCCCCCCCCC(=O)*; γGlu = O=C(O)[C@H](CCC(=O)[*:2])N[*:1]; AEEA = NCCOCCOCC(=O)O
Legend:
[1] = molecular target: T1, human calcitonin receptor (human, UniProt P30988 25-474); test: cell-based or functional assay
T1 sequence (looked up): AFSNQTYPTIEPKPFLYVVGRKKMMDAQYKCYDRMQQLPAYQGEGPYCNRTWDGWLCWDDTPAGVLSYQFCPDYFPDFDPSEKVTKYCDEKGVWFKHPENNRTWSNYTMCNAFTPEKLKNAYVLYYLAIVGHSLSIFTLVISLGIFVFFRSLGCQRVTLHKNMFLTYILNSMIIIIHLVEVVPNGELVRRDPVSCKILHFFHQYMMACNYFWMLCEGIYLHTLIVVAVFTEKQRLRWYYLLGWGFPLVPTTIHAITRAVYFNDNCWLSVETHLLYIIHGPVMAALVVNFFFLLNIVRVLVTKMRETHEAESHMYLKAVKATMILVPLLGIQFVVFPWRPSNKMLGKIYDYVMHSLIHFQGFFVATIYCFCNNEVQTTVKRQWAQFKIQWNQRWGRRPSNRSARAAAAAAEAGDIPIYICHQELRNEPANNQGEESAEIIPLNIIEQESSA

[2] = molecular target: T2, human calcitonin receptor (human, UniProt P30988 25-474); test: ratio of IC50 at human calcitonin receptor to IC50 at human amylin receptor (SPA competition assays)
T2 construct: whole, on cells; also called hCTR; hCT
T2 sequence (looked up): T1 sequence (looked up)
How it was run: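 Membranes (35 ng/μL final) + SPA beads, 50 mM Hepes pH 7.4 buffer with 1 mM CaCl2, 5 mM MgCl₂, 0.1% OA, 0.02% Tween20; 120 min, 25° C, shaking; centrifuged, counted; IC₅₀ by one-site binding competition.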

[3] = molecular target: T2, human calcitonin receptor; test: SPA competition against 125I-calcitonin, membranes of BHK cells with human calcitonin receptor (Assay VII)
How it was run: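 BHK hCTR membranes 35 ng/μL + SPA beads 0.05 mg/well; buffer 50 mM Hepes pH 7.4, 1 mM CaCl2, 5 mM MgCl₂, 0.1% OA, 0.02% Tween20. 120 min, 25° C., shaking. Scintillation count; IC50 by one-site binding competition.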

hCTR funct. EC50 (CRE luciferase reporter, BHK cells) [1]: 0.07 nM
B1: N^α1-[(4S)-4-carboxy-4-(19-carboxynonadecanoylamino)butanoyl]-[Glu14,Arg17,Pro21,Pro25,Pro28,Pro29,Pro37]-h-amylin (peptide)
peptide: {C20 diacid-γGlu}-KCNTATCATQRLAEFLRHSSPNFGPILPPTNVGSNTP-NH2
modifications: disulfide 2-7
SMILES: CC[C@H](C)[C@H](NC(=O)[C@@H]1CCCN1C(=O)CNC(=O)[C@H](Cc1ccccc1)NC(=O)[C@H](CC(N)=O)NC(=O)[C@@H]1CCCN1C(=O)[C@H](CO)NC(=O)[C@H](CO)NC(=O)[C@H](Cc1c[nH]cn1)NC(=O)[C@H](CCCNC(=N)N)NC(=O)[C@H](CC(C)C)NC(=O)[C@H](Cc1ccccc1)NC(=O)[C@H](CCC(=O)O)NC(=O)[C@H](C)NC(=O)[C@H](CC(C)C)NC(=O)[C@H](CCCNC(=N)N)NC(=O)[C@H](CCC(N)=O)NC(=O)[C@@H](NC(=O)[C@H](C)NC(=O)[C@@H]1CSSC[C@H](NC(=O)[C@H](CCCCN)NC(=O)CC[C@H](NC(=O)CCCCCCCCCCCCCCCCCCC(=O)O)C(=O)O)C(=O)N[C@@H](CC(N)=O)C(=O)N[C@@H]([C@@H](C)O)C(=O)N[C@@H](C)C(=O)N[C@@H]([C@@H](C)O)C(=O)N1)[C@@H](C)O)C(=O)N[C@@H](CC(C)C)C(=O)N1CCC[C@H]1C(=O)N1CCC[C@H]1C(=O)N[C@H](C(=O)N[C@@H](CC(N)=O)C(=O)N[C@H](C(=O)NCC(=O)N[C@@H](CO)C(=O)N[C@@H](CC(N)=O)C(=O)N[C@H](C(=O)N1CCC[C@H]1C(N)=O)[C@@H](C)O)C(C)C)[C@@H](C)O
notes: Synthetic acylated analogue of human amylin; also called compound 4

Ratio hCT/hAmylin binding [2]: 45.3
IC50 [3]: 3.44 nM
B2: N^ε1-[(4S)-4-carboxy-4-[[(4S)-4-carboxy-4-(19-carboxynonadecanoylamino)butanoyl]amino]butanoyl]-[Ser14,Arg17,Pro21,Pro27,Pro34,Glu35]-h-amylin (peptide)
peptide: K([γGlu-γGlu-C20 diacid])CNTATCATQRLASFLRHSSPNFGAIPSSTNVGPETY-NH2
modifications: disulfide 2-7; N-terminus assumed
SMILES: CC[C@H](C)[C@H](NC(=O)[C@H](C)NC(=O)CNC(=O)[C@H](Cc1ccccc1)NC(=O)[C@H](CC(N)=O)NC(=O)[C@@H]1CCCN1C(=O)[C@H](CO)NC(=O)[C@H](CO)NC(=O)[C@H](Cc1c[nH]cn1)NC(=O)[C@H](CCCNC(=N)N)NC(=O)[C@H](CC(C)C)NC(=O)[C@H](Cc1ccccc1)NC(=O)[C@H](CO)NC(=O)[C@H](C)NC(=O)[C@H](CC(C)C)NC(=O)[C@H](CCCNC(=N)N)NC(=O)[C@H](CCC(N)=O)NC(=O)[C@@H](NC(=O)[C@H](C)NC(=O)[C@@H]1CSSC[C@H](NC(=O)[C@@H](N)CCCCNC(=O)CC[C@H](NC(=O)CC[C@H](NC(=O)CCCCCCCCCCCCCCCCCCC(=O)O)C(=O)O)C(=O)O)C(=O)N[C@@H](CC(N)=O)C(=O)N[C@@H]([C@@H](C)O)C(=O)N[C@@H](C)C(=O)N[C@@H]([C@@H](C)O)C(=O)N1)[C@@H](C)O)C(=O)N1CCC[C@H]1C(=O)N[C@@H](CO)C(=O)N[C@@H](CO)C(=O)N[C@H](C(=O)N[C@@H](CC(N)=O)C(=O)N[C@H](C(=O)NCC(=O)N1CCC[C@H]1C(=O)N[C@@H](CCC(=O)O)C(=O)N[C@H](C(=O)N[C@@H](Cc1ccc(O)cc1)C(N)=O)[C@@H](C)O)C(C)C)[C@@H](C)O
notes: also called compound 120

hCTR funct. EC50 (CRE luciferase reporter, BHK cells) [1]: 0.285 nM
B3: N^α1-[2-[2-[2-[[2-[2-[2-[[(4S)-4-carboxy-4-(19-carboxynonadecanoylamino)butanoyl]amino]ethoxy]ethoxy]acetyl]amino]ethoxy]ethoxy]acetyl]-[Glu14,Arg17,Pro21,Pro27 … (peptide)
peptide: {C20 diacid-γGlu-AEEA-AEEA}-KCNTATCATQRLAEFLRHSSPNFGAIPSSTNVGSNTP-NH2
modifications: disulfide 2-7
SMILES: CC[C@H](C)[C@H](NC(=O)[C@H](C)NC(=O)CNC(=O)[C@H](Cc1ccccc1)NC(=O)[C@H](CC(N)=O)NC(=O)[C@@H]1CCCN1C(=O)[C@H](CO)NC(=O)[C@H](CO)NC(=O)[C@H](Cc1c[nH]cn1)NC(=O)[C@H](CCCNC(=N)N)NC(=O)[C@H](CC(C)C)NC(=O)[C@H](Cc1ccccc1)NC(=O)[C@H](CCC(=O)O)NC(=O)[C@H](C)NC(=O)[C@H](CC(C)C)NC(=O)[C@H](CCCNC(=N)N)NC(=O)[C@H](CCC(N)=O)NC(=O)[C@@H](NC(=O)[C@H](C)NC(=O)[C@@H]1CSSC[C@H](NC(=O)[C@H](CCCCN)NC(=O)COCCOCCNC(=O)COCCOCCNC(=O)CC[C@H](NC(=O)CCCCCCCCCCCCCCCCCCC(=O)O)C(=O)O)C(=O)N[C@@H](CC(N)=O)C(=O)N[C@@H]([C@@H](C)O)C(=O)N[C@@H](C)C(=O)N[C@@H]([C@@H](C)O)C(=O)N1)[C@@H](C)O)C(=O)N1CCC[C@H]1C(=O)N[C@@H](CO)C(=O)N[C@@H](CO)C(=O)N[C@H](C(=O)N[C@@H](CC(N)=O)C(=O)N[C@H](C(=O)NCC(=O)N[C@@H](CO)C(=O)N[C@@H](CC(N)=O)C(=O)N[C@H](C(=O)N1CCC[C@H]1C(N)=O)[C@@H](C)O)C(C)C)[C@@H](C)O
notes: Synthetic acylated analogue of human amylin; also called compound 20

hCTR funct. EC50 (CRE luciferase reporter, BHK cells) [1]: 0.16 nM
B4: N^α1-[(4S)-4-carboxy-4-(19-carboxynonadecanoylamino)butanoyl]-[Glu14,Arg17,Pro21,Pro26,Pro37]-h-amylin (peptide)
peptide: {C20 diacid-γGlu}-KCNTATCATQRLAEFLRHSSPNFGAPLSSTNVGSNTP-NH2
modifications: disulfide 2-7
SMILES: CC(C)C[C@H](NC(=O)[C@H](CCCNC(=N)N)NC(=O)[C@H](CCC(N)=O)NC(=O)[C@@H](NC(=O)[C@H](C)NC(=O)[C@@H]1CSSC[C@H](NC(=O)[C@H](CCCCN)NC(=O)CC[C@H](NC(=O)CCCCCCCCCCCCCCCCCCC(=O)O)C(=O)O)C(=O)N[C@@H](CC(N)=O)C(=O)N[C@@H]([C@@H](C)O)C(=O)N[C@@H](C)C(=O)N[C@@H]([C@@H](C)O)C(=O)N1)[C@@H](C)O)C(=O)N[C@@H](C)C(=O)N[C@@H](CCC(=O)O)C(=O)N[C@@H](Cc1ccccc1)C(=O)N[C@@H](CC(C)C)C(=O)N[C@@H](CCCNC(=N)N)C(=O)N[C@@H](Cc1c[nH]cn1)C(=O)N[C@@H](CO)C(=O)N[C@@H](CO)C(=O)N1CCC[C@H]1C(=O)N[C@@H](CC(N)=O)C(=O)N[C@@H](Cc1ccccc1)C(=O)NCC(=O)N[C@@H](C)C(=O)N1CCC[C@H]1C(=O)N[C@@H](CC(C)C)C(=O)N[C@@H](CO)C(=O)N[C@@H](CO)C(=O)N[C@H](C(=O)N[C@@H](CC(N)=O)C(=O)N[C@H](C(=O)NCC(=O)N[C@@H](CO)C(=O)N[C@@H](CC(N)=O)C(=O)N[C@H](C(=O)N1CCC[C@H]1C(N)=O)[C@@H](C)O)C(C)C)[C@@H](C)O
notes: Synthetic acylated analogue of human amylin; also called compound 5

hCTR funct. EC50 (CRE luciferase reporter, BHK cells) [1]: 0.112 nM
B5: N^α1-[(4S)-4-carboxy-4-(19-carboxynonadecanoylamino)butanoyl]-[Glu14,Arg17,Pro21,Pro27,Asp35,Pro37]-h-amylin (peptide)
peptide: {C20 diacid-γGlu}-KCNTATCATQRLAEFLRHSSPNFGAIPSSTNVGSDTP-NH2
modifications: disulfide 2-7
SMILES: CC[C@H](C)[C@H](NC(=O)[C@H](C)NC(=O)CNC(=O)[C@H](Cc1ccccc1)NC(=O)[C@H](CC(N)=O)NC(=O)[C@@H]1CCCN1C(=O)[C@H](CO)NC(=O)[C@H](CO)NC(=O)[C@H](Cc1c[nH]cn1)NC(=O)[C@H](CCCNC(=N)N)NC(=O)[C@H](CC(C)C)NC(=O)[C@H](Cc1ccccc1)NC(=O)[C@H](CCC(=O)O)NC(=O)[C@H](C)NC(=O)[C@H](CC(C)C)NC(=O)[C@H](CCCNC(=N)N)NC(=O)[C@H](CCC(N)=O)NC(=O)[C@@H](NC(=O)[C@H](C)NC(=O)[C@@H]1CSSC[C@H](NC(=O)[C@H](CCCCN)NC(=O)CC[C@H](NC(=O)CCCCCCCCCCCCCCCCCCC(=O)O)C(=O)O)C(=O)N[C@@H](CC(N)=O)C(=O)N[C@@H]([C@@H](C)O)C(=O)N[C@@H](C)C(=O)N[C@@H]([C@@H](C)O)C(=O)N1)[C@@H](C)O)C(=O)N1CCC[C@H]1C(=O)N[C@@H](CO)C(=O)N[C@@H](CO)C(=O)N[C@H](C(=O)N[C@@H](CC(N)=O)C(=O)N[C@H](C(=O)NCC(=O)N[C@@H](CO)C(=O)N[C@@H](CC(=O)O)C(=O)N[C@H](C(=O)N1CCC[C@H]1C(N)=O)[C@@H](C)O)C(C)C)[C@@H](C)O
notes: Synthetic acylated analogue of human amylin; also called compound 11

hCTR funct. EC50 (CRE luciferase reporter, BHK cells) [1]: 0.07 nM
B6: N^α1-[(4S)-4-carboxy-4-(19-carboxynonadecanoylamino)butanoyl]-[Asp14,Arg17,Pro21,Pro27,Pro37]-h-amylin (peptide)
peptide: {C20 diacid-γGlu}-KCNTATCATQRLADFLRHSSPNFGAIPSSTNVGSNTP-NH2
modifications: disulfide 2-7
SMILES: CC[C@H](C)[C@H](NC(=O)[C@H](C)NC(=O)CNC(=O)[C@H](Cc1ccccc1)NC(=O)[C@H](CC(N)=O)NC(=O)[C@@H]1CCCN1C(=O)[C@H](CO)NC(=O)[C@H](CO)NC(=O)[C@H](Cc1c[nH]cn1)NC(=O)[C@H](CCCNC(=N)N)NC(=O)[C@H](CC(C)C)NC(=O)[C@H](Cc1ccccc1)NC(=O)[C@H](CC(=O)O)NC(=O)[C@H](C)NC(=O)[C@H](CC(C)C)NC(=O)[C@H](CCCNC(=N)N)NC(=O)[C@H](CCC(N)=O)NC(=O)[C@@H](NC(=O)[C@H](C)NC(=O)[C@@H]1CSSC[C@H](NC(=O)[C@H](CCCCN)NC(=O)CC[C@H](NC(=O)CCCCCCCCCCCCCCCCCCC(=O)O)C(=O)O)C(=O)N[C@@H](CC(N)=O)C(=O)N[C@@H]([C@@H](C)O)C(=O)N[C@@H](C)C(=O)N[C@@H]([C@@H](C)O)C(=O)N1)[C@@H](C)O)C(=O)N1CCC[C@H]1C(=O)N[C@@H](CO)C(=O)N[C@@H](CO)C(=O)N[C@H](C(=O)N[C@@H](CC(N)=O)C(=O)N[C@H](C(=O)NCC(=O)N[C@@H](CO)C(=O)N[C@@H](CC(N)=O)C(=O)N[C@H](C(=O)N1CCC[C@H]1C(N)=O)[C@@H](C)O)C(C)C)[C@@H](C)O
notes: Synthetic acylated analogue of human amylin; also called compound 10

From US20140087995A1 (published 2014)
